This note sets out measurements from paper PMC7589864.

This assay deals with F-actin of thin filaments in ghost fibers from rabbit psoas muscle (rabbit (endogenous in psoas muscle fibers)) (UniProt P68135). In words: polarized microfluorimetry of ghost muscle fibers; 5-IAF-labelled Tpm incorporated into ghost fibers (2 mg/mL, 2-3 h); sum of the four polarized fluorescence intensities of Tpm-AF, in the presence of S1.

Sequence of recombinant control (wild-type) human tropomyosin Tpm2.2 (natural protein) (P07951 whole entry): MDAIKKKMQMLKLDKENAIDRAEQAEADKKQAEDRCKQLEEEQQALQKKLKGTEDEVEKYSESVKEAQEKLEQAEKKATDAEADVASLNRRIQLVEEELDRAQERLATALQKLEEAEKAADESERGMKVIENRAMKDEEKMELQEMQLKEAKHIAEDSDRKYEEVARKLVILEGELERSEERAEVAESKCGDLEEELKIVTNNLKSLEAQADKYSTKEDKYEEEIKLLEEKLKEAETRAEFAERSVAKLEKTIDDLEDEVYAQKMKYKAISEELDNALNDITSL

For the substance “recombinant control (wild-type) human tropomyosin Tpm2.2 (natural protein)”, the sum of fluorescence intensities for Tpm-AF (Isum) in ghost fibers was found to be 1030.
The result for “recombinant mutant human tropomyosin Tpm2.2 with the Gln147Pro substitution (natural protein)” reads 978.
